These results are taken from the supplement of paper PMC10567573.

B1: ZNF449 (parent)
chain: HKKKSPGEKPHRCPQCGKCFARKS
B2: TCEB3B (parent)
chain: STTALGDKQRKANESKGTRESWDS
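Also: lentivirally expressed fusions sorted by FACS into six bins by GFP to DsRed ratio, PSI derived from sequencing read proportions per bin multiplied by bin number.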

Variants of B1 are the subject of the first data set. The experiment in a line: protein stability index of a GFP-peptide fusion (GPS, HEK-293T) (PSI 1-6); higher = more stable. The note with it: c terminus: a fixed tail appended.
For the variant HKKKSPNEKPHRCPQCGKCFARKS [G7N], the protein stability index was 3.52.

HKKKSPYEKPHRCPQCGKCFARKS [G7Y]: the protein stability index turned out to be 3.55.

As for HKKKSPMEKPHRCPQCGKCFARKS [G7M], the protein stability index is 3.46.

Turning to HKKKSPFEKPHRCPQCGKCFARKS [G7F], the protein stability index was determined as 3.53.

Turning to HKKKSPVEKPHRCPQCGKCFARKS [G7V], the protein stability index was 3.76.

In the case of HKKKSPIEKPHRCPQCGKCFARKS [G7I], the protein stability index is 2.94.

On to HKKKSPSEKPHRCPQCGKCFARKS [G7S], for which the protein stability index worked out at 3.36.

Take HKKKSPTEKPHRCPQCGKCFARKS [G7T]: the protein stability index was 3.58.

Turning to HKKKSPQEKPHRCPQCGKCFARKS [G7Q], the protein stability index is 3.2.

As for HVKKSPGEKPHRCPQCGKCFARKS [K2V], the protein stability index turned out to be 3.25.

With HIKKSPGEKPHRCPQCGKCFARKS [K2I], the protein stability index was determined as 2.98.

For HMKKSPGEKPHRCPQCGKCFARKS [K2M], the protein stability index came to 2.52.

As to HSKKSPGEKPHRCPQCGKCFARKS [K2S], the protein stability index was determined as 3.19.

As to HQKKSPGEKPHRCPQCGKCFARKS [K2Q], the protein stability index stood at 3.36.

As for HNKKSPGEKPHRCPQCGKCFARKS [K2N], the protein stability index was found to be 3.78.

Turning to HGKKSPGEKPHRCPQCGKCFARKS [K2G], the protein stability index stood at 3.43.

HYKKSPGEKPHRCPQCGKCFARKS [K2Y]: the protein stability index amounted to 2.37.

For HFKKSPGEKPHRCPQCGKCFARKS [K2F], the protein stability index came to 3.32.

With HPKKSPGEKPHRCPQCGKCFARKS [K2P], the protein stability index was determined as 3.46.

Regarding HTKKSPGEKPHRCPQCGKCFARKS [K2T], the protein stability index is 3.03.

Regarding HLKKSPGEKPHRCPQCGKCFARKS [K2L], the protein stability index amounted to 3.41.

HDKKSPGEKPHRCPQCGKCFARKS [K2D]: the protein stability index came out at 2.92.

On to HHKKSPGEKPHRCPQCGKCFARKS [K2H], for which the protein stability index was found to be 3.27.

With HCKKSPGEKPHRCPQCGKCFARKS [K2C], the protein stability index worked out at 3.21.

As for HWKKSPGEKPHRCPQCGKCFARKS [K2W], the protein stability index came to 3.04.

Take HAKKSPGEKPHRCPQCGKCFARKS [K2A]: the protein stability index turned out to be 3.42.

HKTKSPGEKPHRCPQCGKCFARKS [K3T]: the protein stability index was 2.07.

Consider HKGKSPGEKPHRCPQCGKCFARKS [K3G], for which the protein stability index amounted to 3.33.

Regarding HKVKSPGEKPHRCPQCGKCFARKS [K3V], the protein stability index came out at 3.51.

On to HKFKSPGEKPHRCPQCGKCFARKS [K3F], for which the protein stability index stood at 3.19.

HKDKSPGEKPHRCPQCGKCFARKS [K3D]: the protein stability index came to 2.5.

For HKHKSPGEKPHRCPQCGKCFARKS [K3H], the protein stability index stood at 4.24.

With HKAKSPGEKPHRCPQCGKCFARKS [K3A], the protein stability index worked out at 3.73.

In the case of HKRKSPGEKPHRCPQCGKCFARKS [K3R], the protein stability index was found to be 3.46.

For the variant HKPKSPGEKPHRCPQCGKCFARKS [K3P], the protein stability index was 3.12.

On to HKQKSPGEKPHRCPQCGKCFARKS [K3Q], for which the protein stability index was determined as 3.14.

For HKIKSPGEKPHRCPQCGKCFARKS [K3I], the protein stability index is 3.15.

Regarding HKYKSPGEKPHRCPQCGKCFARKS [K3Y], the protein stability index turned out to be 2.02.

As for HKMKSPGEKPHRCPQCGKCFARKS [K3M], the protein stability index was 3.42.

For HKWKSPGEKPHRCPQCGKCFARKS [K3W], the protein stability index came out at 3.1.

As for HKLKSPGEKPHRCPQCGKCFARKS [K3L], the protein stability index was 3.46.

For HKKKSPGEKPHFCPQCGKCFARKS [R12F], the protein stability index turned out to be 2.56.

Take HKKKSPGEKPHTCPQCGKCFARKS [R12T]: the protein stability index is 2.74.

Take HKKKSPGEKPHHCPQCGKCFARKS [R12H]: the protein stability index was determined as 3.59.

For HKKKSPGEKPHLCPQCGKCFARKS [R12L], the protein stability index came to 3.85.

As for HKKKSPGEKPHGCPQCGKCFARKS [R12G], the protein stability index came to 3.1.

Take HKKKSPGEKPHSCPQCGKCFARKS [R12S]: the protein stability index turned out to be 4.11.

For HKKKSPGEKPHPCPQCGKCFARKS [R12P], the protein stability index amounted to 2.74.

As to HKKKSPGEKPHKCPQCGKCFARKS [R12K], the protein stability index came out at 3.98.

Turning to HKKKSPGEKPHQCPQCGKCFARKS [R12Q], the protein stability index was determined as 3.19.

On to HKKKSPGEKPHNCPQCGKCFARKS [R12N], for which the protein stability index amounted to 3.92.

Regarding LKKKSPGEKPHRCPQCGKCFARKS [H1L], the protein stability index was 2.54.

Consider WKKKSPGEKPHRCPQCGKCFARKS [H1W], for which the protein stability index was 2.7.

Regarding KKKKSPGEKPHRCPQCGKCFARKS [H1K], the protein stability index was determined as 3.5.

As to TKKKSPGEKPHRCPQCGKCFARKS [H1T], the protein stability index came out at 2.88.

Take YKKKSPGEKPHRCPQCGKCFARKS [H1Y]: the protein stability index was 3.16.

As for AKKKSPGEKPHRCPQCGKCFARKS [H1A], the protein stability index was found to be 3.37.

For NKKKSPGEKPHRCPQCGKCFARKS [H1N], the protein stability index is 4.13.

On to DKKKSPGEKPHRCPQCGKCFARKS [H1D], for which the protein stability index was 3.73.

Consider CKKKSPGEKPHRCPQCGKCFARKS [H1C], for which the protein stability index came out at 3.85.

Regarding GKKKSPGEKPHRCPQCGKCFARKS [H1G], the protein stability index was 3.68.

In the case of IKKKSPGEKPHRCPQCGKCFARKS [H1I], the protein stability index was 2.06.

SKKKSPGEKPHRCPQCGKCFARKS [H1S]: the protein stability index was 4.38.

For RKKKSPGEKPHRCPQCGKCFARKS [H1R], the protein stability index is 3.53.

VKKKSPGEKPHRCPQCGKCFARKS [H1V]: the protein stability index came out at 3.15.

The variants in a further data set derive from B2. The data set is described as above. The note with it: c terminus: a fixed tail appended.
On to STTALGDKQRKANESKGTRLSWDS [E20L], for which the protein stability index is 4.6.

For STTALGDKQRKANESKGTRFSWDS [E20F], the protein stability index turned out to be 4.6.

Regarding STTALGDKQRKAHESKGTRESWDS [N13H], the protein stability index turned out to be 3.35.

Regarding STTALGDKQRKAYESKGTRESWDS [N13Y], the protein stability index is 3.22.

Regarding STTALGDKQRKAMESKGTRESWDS [N13M], the protein stability index came out at 3.7.

For STTALGDKQRKANESKGTRESWCS [D23C], the protein stability index worked out at 1.98.

Consider STTANGDKQRKANESKGTRESWDS [L5N], for which the protein stability index worked out at 4.14.

In the case of STTAPGDKQRKANESKGTRESWDS [L5P], the protein stability index was 4.37.

As for STTALGDKQRKANESKGTRESWDW [S24W], the protein stability index was 4.59.

Regarding STTALGDKQRKANESKGTRESWDV [S24V], the protein stability index came to 4.62.

In the case of STTALGDKQRKANESKGTRESWDL [S24L], the protein stability index amounted to 4.37.

STPALGDKQRKANESKGTRESWDS [T3P]: the protein stability index came to 4.02.

As to STCALGDKQRKANESKGTRESWDS [T3C], the protein stability index worked out at 3.22.

Regarding STTALGDKQRKANESKGTRESRDS [W22R], the protein stability index is 5.82.

Regarding STTALGDKQRKANESKGTRESYDS [W22Y], the protein stability index worked out at 5.6.

Turning to STTALGDKQRKANESKGTREKWDS [S21K], the protein stability index stood at 4.97.

SQTALGDKQRKANESKGTRESWDS [T2Q]: the protein stability index amounted to 3.33.

SATALGDKQRKANESKGTRESWDS [T2A]: the protein stability index was found to be 4.32.

SYTALGDKQRKANESKGTRESWDS [T2Y]: the protein stability index turned out to be 3.33.

Consider STTALGDKQRKANESKGVRESWDS [T18V], for which the protein stability index worked out at 4.55.

For STTALGLKQRKANESKGTRESWDS [D7L], the protein stability index is 2.88.

In the case of STTALFDKQRKANESKGTRESWDS [G6F], the protein stability index was 3.12.

With STTALGDKQRKANESKGTYESWDS [R19Y], the protein stability index was determined as 3.37.

On to STTALGDKQRKANESKGTMESWDS [R19M], for which the protein stability index amounted to 4.8.

As to STTALGDKQEKANESKGTRESWDS [R10E], the protein stability index is 4.57.

For the variant STTALGDKQFKANESKGTRESWDS [R10F], the protein stability index is 4.15.

Take STTALGDKQAKANESKGTRESWDS [R10A]: the protein stability index was 4.13.

As for STTALGDKCRKANESKGTRESWDS [Q9C], the protein stability index amounted to 3.37.

Consider STTALGDKHRKANESKGTRESWDS [Q9H], for which the protein stability index was 4.26.
